Assay results reported in publication PMC5065780.

Molecular target: VP35 IID (interferon inhibitory domain) (Ebola virus, UniProt X5GXU1 215-340)
Assay: EMSA

B1: 10 bp dsRNA probe (dsRNA)
RNA 1: CACUGCGACC
RNA 2: GGUCGCAGUG
B1: binds.
